Data set [1] concerns O=[N+]([O-])c1ccc(O[C@@H]2O[C@H](CO)[C@@H](O)[C@H](O)[C@H]2O)cc1. The data set is described as follows: purified protein. The following applies: pH 10.0, glycine-NaOH.
Substrate in the data set “purified protein”: O=[N+]([O-])c1ccc(O[C@@H]2O[C@H](CO)[C@@H](O)[C@H](O)[C@H]2O)cc1
The data set can be described thus: purified protein. The following applies: pH 10.0, glycine-NaOH, 30 °C.

Setting [2] is: results text says 30 °C, methods say optimal temperatures of 30 and 50 °C.

Data on nine molecules can be found in paper PMC6940790.

In the case of “Bgl1D (uncultured microorganism; E154G/I57K/S28P/W122G/Y82S)”, in data set [1] (30 °C), the Km (usually the substrate concentration at which the rate is half of its maximum) came out at 1.67 ± 0.12 mM, the maximal velocity (Vmax) (usually the rate approached at saturating substrate) is 42.5 µmol/min/mg, the kcat (commonly the maximal rate divided by the concentration of active sites) stood at 55.8 s⁻¹ and the catalytic efficiency (kcat/Km) (commonly the turnover number divided by the Michaelis constant) was found to be 33400 M⁻¹ s⁻¹.

As to “Bgl1D (uncultured microorganism; D44E/L115N/R91G/S28T/Y37H)”, in data set [1] (setting [2]), the Km was found to be 0.43 ± 0.04 mM, the Vmax was determined as 314 µmol/min/mg, the kcat was found to be 242 s⁻¹ and the kcat/Km stood at 562000 M⁻¹ s⁻¹.

As for “Bgl1D (uncultured microorganism; K117N/M148K/Q25L)”, in data set [1] (30 °C), the Km was 1.25 ± 0.12 mM, the Vmax was 21.7 µmol/min/mg, the kcat came to 23.8 s⁻¹ and the kcat/Km came out at 14400 M⁻¹ s⁻¹.

With “Bgl1D (uncultured microorganism; K117N/L115Q/M148K/Q25L/S28T)”, in data set [1] (30 °C), the Km is on record as 1.74 ± 0.14 mM, the maximal velocity (Vmax) worked out at 37.5 µmol/min/mg, the kcat stood at 31.2 s⁻¹ and the kcat/Km amounted to 17900 M⁻¹ s⁻¹.

B1: Bgl1D (uncultured microorganism; L115N/S28T) (protein)
chain: MSLFFTFNPLEIVPTRVIGVPNHYQNYTWCNFQNGDYPFIDGIDINLIYQVKVGIPIVVRLETVATIFNILIPHLSESERDYIKRVYDYLRLDGRTSQSSYFFGPVDSQKIGLINRKYFFEWSSQMTYECLSGKVRGIAAPDKLVSEMNEIYNELMKVFNGDVSNIVNIGVN
Turning to B1, in the data set “purified protein”, the Km was 1.01 ± 0.45 mM, the Vmax amounted to 26.3 µmol/min/mg, the kcat was 16.5 s⁻¹ and the kcat/Km was determined as 16400 M⁻¹ s⁻¹.

B2: Bgl1D (uncultured microorganism; E154G/I57K/S28P) (protein)
chain: MSLFFTFNPLEIVPTRVIGVPNHYQNYPWCNFQNGDYPFIDGIDINLIYQVKVGIPKVVRLETVATIFNILIPHLSESERDYIKRVYDYLRLDGRTSQSSYFFGPVDSQKIGLILRKYFFEWSSQMTYECLSGKVRGIAAPDKLVSEMNEIYNGLMKVFNGDVSNIVNIGVN
B2: in “purified protein”, the Km is 1.17 ± 0.05 mM, the Vmax was determined as 52.9 µmol/min/mg, the kcat was 48.1 s⁻¹ and the kcat/Km was 41100 M⁻¹ s⁻¹.

B3: Bgl1D (uncultured microorganism; D44E/F68L/I70M/R91G/Y37H) (protein)
chain: MSLFFTFNPLEIVPTRVIGVPNHYQNYSWCNFQNGDHPFIDGIEINLIYQVKVGIPIVVRLETVATILNMLIPHLSESERDYIKRVYDYLGLDGRTSQSSYFFGPVDSQKIGLILRKYFFEWSSQMTYECLSGKVRGIAAPDKLVSEMNEIYNELMKVFNGDVSNIVNIGVN
For B3, in “purified protein”, the Km was 0.47 ± 0.02 mM, the maximal velocity (Vmax) is 154 µmol/min/mg, the kcat came out at 139 s⁻¹ and the kcat/Km was 296000 M⁻¹ s⁻¹.

B4: Bgl1D (uncultured microorganism; F68L/I70M) (protein)
chain: MSLFFTFNPLEIVPTRVIGVPNHYQNYSWCNFQNGDYPFIDGIDINLIYQVKVGIPIVVRLETVATILNMLIPHLSESERDYIKRVYDYLRLDGRTSQSSYFFGPVDSQKIGLILRKYFFEWSSQMTYECLSGKVRGIAAPDKLVSEMNEIYNELMKVFNGDVSNIVNIGVN
Turning to B4, in the data set “purified protein”, the Km is recorded as 0.53 ± 0.08 mM, the Vmax was 25.8 µmol/min/mg, the kcat came to 29.4 s⁻¹ and the kcat/Km was 55400 M⁻¹ s⁻¹.

B5: Bgl1D (uncultured microorganism) (protein)
chain: MSLFFTFNPLEIVPTRVIGVPNHYQNYSWCNFQNGDYPFIDGIDINLIYQVKVGIPIVVRLETVATIFNILIPHLSESERDYIKRVYDYLRLDGRTSQSSYFFGPVDSQKIGLILRKYFFEWSSQMTYECLSGKVRGIAAPDKLVSEMNEIYNELMKVFNGDVSNIVNIGVN
Turning to B5, in the data set “purified protein”, the Km came to 0.54 ± 0.03 mM, the Vmax amounted to 20.1 µmol/min/mg, the kcat worked out at 13.4 s⁻¹ and the kcat/Km is 24800 M⁻¹ s⁻¹.
